# Results reported in the supplement of paper PMC10724198.
# ± gives the standard deviation of the averaged measurements.
# System: Saccharomyces cerevisiae
# Test: protein stability index of tFT-peptide fusion (C-terminal peptide) (PSI (0-1 scale)); higher = more stable (slower turnover)
# Details: genetic background: wild type; temperature: 30 C
# 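Also: PSI is a weighted mean of sequencing reads over stability bins, variants kept only with over 10 reads, mCherry proximal and sfGFP distal, peptide attached via GGGS linker.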
row,Sequence,protein stability index
1,YPLRCPITATHA,0.616 ± 0.099
2,GCGKRVVVVSEL,0.6386 ± 0.00072
3,PPSPLYAFPYPL,0.757 ± 0.0099
4,ICYGLHVPARRR,0.63303 ± 0.00013
5,IPDATGYGWVRH,0.691 ± 0.018
6,STPPCRPFMADL,0.619 ± 0.0035
7,FRLLSTINSCCV,0.612 ± 0.036
8,LADLSAPAPCLP,0.689 ± 0.091
9,GVLVERLCGRGF,0.702 ± 0.049
10,PLPRLRRPAPPH,0.667 ± 0.055
11,RSRGSRNGKWVW,0.703 ± 0.02
12,DKKKRRERKDRT,0.6746 ± 0.0061
13,GRRVAWGAQGLG,0.602 ± 0.046
14,PEEGQNASVRPC,0.694 ± 0.023
15,GKSVVAHGLLGG,0.6702 ± 0.0018
16,GEGALTGGAGGQ,0.647 ± 0.0074
17,SLTYTSVAKAEV,0.6149 ± 0.0034
18,FWEHFVLSVRPE,0.758 ± 0.076
19,VGCLNCWLPFLG,0.666 ± 0.048
20,PSFVIQRCPMIL,0.606 ± 0.076
21,ILCQLRKFKFQN,0.58 ± 0.013
22,GPGGVGGTSGGK,0.69 ± 0.062
23,LNIVVTQNKNKK,0.73 ± 0.035
24,CGLRRRAGGGGV,0.7 ± 0.024
25,LSFRPPLHPFAL,0.695 ± 0.01
26,YKKLTRKKIQDK,0.781 ± 0.0088

row,Sequence,protein stability index
1,PLSVSLSLLTPR,0.74 ± 0.13
2,SCTPEDGRVRYT,0.66 ± 0.048
3,EDKVHQSSACHQ,0.707 ± 0.03
4,DVLVHETFLCRL,0.774 ± 0.016
5,WPGRTGANTRSG,0.671 ± 0.11
6,WFGAECVCVRGG,0.762 ± 0.2
7,LPLPPPPAPPPL,0.7015 ± 0.0012
8,LLLRLAASSSLS,0.703 ± 0.027
9,YPPPRPDLPLLQ,0.679 ± 0.016
10,PPAVRRPRRGGN,0.699 ± 0.016
11,CEHRTPLMFKRG,0.686 ± 0.048
12,NVRVLKCLWGVG,0.619 ± 0.029
13,TLGALEVSVYET,0.614 ± 0.0097
14,FLLPPAPRPAPP,0.76 ± 0.086
15,ARAGLVGDARGM,0.641 ± 0.026
16,PPPHPPRPPVPR,0.697 ± 0.016
17,GITCAEGAAMKR,0.676 ± 0.022
18,TDWGLTPRGRVT,0.777 ± 0.062
19,EPNRIAKYYKKY,0.686 ± 0.16
20,TPASSLFRCASR,0.656 ± 0.028
21,RATLPPSAASLP,0.677 ± 0.1
22,YPARSPPSPLSL,0.686 ± 0.025
23,QEMMRGVVGGNW,0.715 ± 0.033
24,SSGRWLFLPPCP,0.899 ± 0.13
25,PPLLPPAPLFPP,0.694 ± 0.025
26,YLNVVSSFYTCS,0.684 ± 0.02

row,Sequence,protein stability index
1,FTHVKEVNTGNR,0.672 ± 0.053
2,PPPLPPLPTALS,0.693 ± 0.0036
3,SVAAGCGHGGGG,0.657 ± 0.011
4,LPPLPPLILFPL,0.684 ± 0.082
5,SDVFGGVLSFGF,0.6613 ± 0.0008
6,CRSCFGGGVRFV,0.743 ± 0.076
7,TSPLPRPPPPSY,0.61 ± 0.043
8,LEMTGGACGGGK,0.675 ± 0.029
9,AGGVCHVSSLLA,0.64 ± 0.021
10,PSYLALPLSTSP,0.684 ± 0.024
11,AFQLGMILSLVA,0.507 ± 0.013
12,SFLLPTLVRLSH,0.65 ± 0.022
13,KEGARGGEASRR,0.669 ± 0.031
14,MNRHLHFLSPET,0.648 ± 0.031
15,HDSMTQEPQNSA,0.65 ± 0.065
16,VWSSCAGDVLFD,0.734 ± 0.039
17,IALTSCVPDLSF,0.6911 ± 0.0037
18,PPRPPFPLPSPL,0.703 ± 0.025
19,SEPADGRDRMAE,0.6885 ± 0.0054
20,GGGGAGGGAGGG,0.616 ± 0.042
21,VGCGVGGIGVLV,0.712 ± 0.1
22,PPAHPRPPPPFL,0.762 ± 0.037
23,RVRAITRKCGQY,0.656 ± 0.051
24,TVIDVIKLMLHL,0.583 ± 0.044
25,PPQTSVASRPTR,0.695 ± 0.019
26,RLPLPPSRLVKH,0.671 ± 0.026

row,Sequence,protein stability index
1,VWGAGGGVWGLG,0.793 ± 0.0085
2,SPPPFPPSPSPP,0.715 ± 0.039
3,LVLTLIDGSWNV,0.7011 ± 0.0056
4,KRIVGIFINRKI,0.586 ± 0.0096
5,GGVPRNRAQIGV,0.758 ± 0.082
6,PLAPPHRPALLM,0.568 ± 0.034
7,FPPAHPVHFSPP,0.717 ± 0.047
8,VGRGCVLGVWEG,0.715 ± 0.035
9,AGVRGWGIAVTP,0.64 ± 0.046
10,APDPPGLRGLSP,0.719 ± 0.015
11,SPLSPLPPALSL,0.695 ± 0.046
12,HNGRAARAYLCW,0.65 ± 0.046
13,AGGGRGGGSLRV,0.669 ± 0.034
14,SSPLRLAPTEPS,0.6927 ± 0.0039
15,VFVPARGAFHGL,0.69 ± 0.018
16,QNNRKEIKRNEI,0.6662 ± 0.0039
17,KKKKKKRQKNTK,0.691 ± 0.03
18,MENAMHQLNRNT,0.679 ± 0.022
19,NRDGWWVSNGCR,0.796 ± 0.07
20,AAVGELLFTSLV,0.699 ± 0.022
21,NIIQTYITLNEL,0.74 ± 0.12
22,PPFLPLPPPPLP,0.731 ± 0.015
23,GLVWGGGGTVGG,0.73 ± 0.12
24,FICAGPLGVCSC,0.498 ± 0.011
25,NTRGRGQCCQGN,0.576 ± 0.053
26,APARPPVTLSTN,0.671 ± 0.013

row,Sequence,protein stability index
1,ELNENKKKKEHL,0.714 ± 0.12
2,AGSTGGGRGRDW,0.76 ± 0.14
3,VSSTLVARTVWC,0.69 ± 0.035
4,KGEGRNRRGVPR,0.675 ± 0.019
5,HRNPNLPFPPPL,0.74 ± 0.069
6,RSSRRLAGPVSS,0.639 ± 0.06
7,CSSLLSSFSLRL,0.671 ± 0.038
8,VAGGLRGLGLRA,0.67 ± 0.053
9,SVGGWIARTAIV,0.661 ± 0.011
10,WHDCLYLWADLG,0.693 ± 0.04
11,VWVGSLWEHPTV,0.781 ± 0.17
12,PNESFLLPELNH,0.711 ± 0.0083
13,PGITRKTKKEKK,0.701 ± 0.041
14,LPGGVGCVGSPV,0.721 ± 0.037
15,HIHKKGPSGHQK,0.696 ± 0.028
16,GGSSVGALGCLC,0.687 ± 0.0084
17,VRGRLGGGVGRA,0.686 ± 0.079
18,SFFGYPCFLLSI,0.54 ± 0.026
19,VGCRGTIAIGGR,0.683 ± 0.0071
20,GGGVYPAGVVSG,0.658 ± 0.01
21,LSASALEFSSPP,0.699 ± 0.0069
22,DKLSSRIPCSPS,0.679 ± 0.0077
23,RGVCVGGGCWLV,0.624 ± 0.034
24,LSPHPPITHPTP,0.683 ± 0.034
25,IRHTQVSHIIYA,0.488 ± 0.029
26,VLACVAQAACCR,0.556 ± 0.054

row,Sequence,protein stability index
1,KFASNNMFTRYV,0.745 ± 0.012
2,ASRCEVGVRWGG,0.683 ± 0.025
3,GSKVGGVGWRSG,0.726 ± 0.0095
4,VAVPGRFTGEGV,0.649 ± 0.061
5,LKRKRKYKKQGV,0.786 ± 0.01
6,SFSIPTCSVPLT,0.687 ± 0.096
7,KRTEHTHDRKIK,0.721 ± 0.034
8,LPLVSLLCLLPR,0.668 ± 0.038
9,RLSRCFDSHLGG,0.696 ± 0.038
10,LVYLQVFSSLLS,0.543 ± 0.014
11,RGRGEVRGVGGG,0.698 ± 0.067
12,APDRLPLSRCPA,0.699 ± 0.02
13,SHLAYVKWYIGD,0.6305 ± 0.0042
14,PSIKRSVKPFSP,0.857 ± 0.2
15,KHKKKRTRDHEE,0.666 ± 0.012
16,PPLPPSSPPPSS,0.6605 ± 0.0028
17,FLSPSLLSLSSP,0.681 ± 0.025
18,EKCCVNSASSFG,0.646 ± 0.0098
19,LLANLRSSIDIQ,0.709 ± 0.18
20,YVELTGRITTKL,0.716 ± 0.038
21,STGVGGPCGRTS,0.617 ± 0.055
22,GWCVWGVFSTAL,0.631 ± 0.033
23,PSGSFPPCLGSP,0.653 ± 0.018
24,SVLAVSFLSLLV,0.636 ± 0.04
25,GWFVGLVSRSLH,0.67 ± 0.019
26,PPTPLIPPLPLH,0.716 ± 0.043

row,Sequence,protein stability index
1,SGKVNNKEGKWK,0.686 ± 0.015
2,SRFDAGYRGTIT,0.68 ± 0.034
3,CSLLCKCHLRRL,0.712 ± 0.1
4,VRAHARPTKGKP,0.682 ± 0.059
5,RMCLDYSFDSLL,0.673 ± 0.0082
6,STVSRHPSSPLP,0.737 ± 0.039
7,WPMYSVIKAQLK,0.638 ± 0.015
8,ASFHPIAPVSTP,0.6862 ± 0.0011
9,PPPSPLPSPPPS,0.746 ± 0.043
10,SRLQIRIRINEV,0.572 ± 0.032
11,FTRFWTKANDPT,0.6913 ± 0.0014
12,FSGISVMCLFSG,0.687 ± 0.12
13,FCGDFGGAYGLW,0.706 ± 0.047
14,LSSLHFRFLSAG,0.62 ± 0.062
15,PPTSPSNALPFA,0.6666 ± 0.0032
16,WWHVLLGGCGCW,0.753 ± 0.013
17,KKKKTEKKKTKQ,0.656 ± 0.035
18,WFPNQCFENEIP,0.742 ± 0.054
19,CRILRPITLRFR,0.528 ± 0.013
20,PPPPPPPPSSSL,0.6819 ± 0.0041
21,NRMLRAQRKNRT,0.689 ± 0.033
22,KSILTRTVNSNQ,0.6592 ± 0.0031
23,SMPKMGISGVIY,0.617 ± 0.051
24,GGGWGRSKTETT,0.672 ± 0.023
25,PPHPPRPPSPHP,0.707 ± 0.051
26,KRNIKKKKTNLR,0.675 ± 0.087

row,Sequence,protein stability index
1,RIADSLTPAHPA,0.699 ± 0.023
2,MQLTRKEEKSQE,0.658 ± 0.023
3,HPSEPCKSQILL,0.712 ± 0.027
4,GDSGPDDDLGIS,0.667 ± 0.065
5,SGCPGPNVPRVP,0.705 ± 0.014
6,SGRIASQACLIW,0.671 ± 0.045
7,PLSPPPPPRPPL,0.728 ± 0.019
8,PPRSPHLPRSSL,0.664 ± 0.069
9,VAGGWVPGRGEG,0.69 ± 0.025
10,RRKHKSEEKHKR,0.649 ± 0.038
11,PPRNPAALPTPI,0.718 ± 0.11
12,LTSGTVLVLSSL,0.683 ± 0.03
13,PRGLLLPLPCHS,0.574 ± 0.00058
14,SPPPHPVHPVPL,0.611 ± 0.019
15,KCSLVLTVARSY,0.609 ± 0.014
16,RDPSVVGLGRPP,0.604 ± 0.0076
17,AIPLPVLSFPPL,0.737 ± 0.024
18,TPATRCLASDSR,0.766 ± 0.11
19,SSLPSTGPRPLH,0.582 ± 0.038
20,PSLNPRVSFVNL,0.685 ± 0.0073
